# Laboratory results: publication PMC9352680, “A comprehensive thermodynamic model for RNA binding by the Saccharomyces cerevisiae Pumilio protein PUF4”
# T1: PUF4 RNA-binding domain (Saccharomyces cerevisiae, UniProt P25339 537-888)
# T1 sequence: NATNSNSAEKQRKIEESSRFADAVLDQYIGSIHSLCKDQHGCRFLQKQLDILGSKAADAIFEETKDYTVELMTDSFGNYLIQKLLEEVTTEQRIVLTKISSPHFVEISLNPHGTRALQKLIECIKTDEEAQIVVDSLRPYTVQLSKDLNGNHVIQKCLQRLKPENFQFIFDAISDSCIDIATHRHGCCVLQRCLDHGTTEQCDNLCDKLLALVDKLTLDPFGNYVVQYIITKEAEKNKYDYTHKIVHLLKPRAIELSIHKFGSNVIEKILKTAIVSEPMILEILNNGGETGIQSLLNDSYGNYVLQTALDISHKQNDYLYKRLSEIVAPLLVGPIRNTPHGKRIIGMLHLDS
# Target: T1, PUF4 RNA-binding domain
# Assay: Mg; RNA-MaP; 20 mM Na-HEPES pH 7.4, 30 mM KOAc, 0.75 mM MgCl2, 0.1% Tween-20, 5% glycerol, 0.1 mg/mL BSA, 2 mM DTT; 25 C; 0.0125-409.6 nM protein
# Conditions: tags: N-His6-TEV cleaved; C-SNAP kept, Cy3B-labelled; label: tethered on chip by stalled RNA polymerase
row,Binder,Kd [nM]
1,Ic_S4_P5E.1_K5.1_C5.1_H5.1_A5.1_[T5A]_[T6C]_[A7C]_F5.1_[T8G]_[T9C]_[A10C]_T5.1 (ssRNA) RNA: UUUGACAACUGAUCGUUCUUUCUUGUAACCGCCUUCUUUCUCGAUCAGUUGUCUUU,1380
2,Ic_S4_P5E.1_K5.1_C5.1_H5.1_A5.1_[T6C]_[A7T]_F5.1_[T9A]_[A10G]_T5.1 (ssRNA) RNA: UUUGACAACUGAUCGUUCUUUCUUGUAUCUUAGUUCUUUCUCGAUCAGUUGUCUUU,3.48
3,Ic_S4_P5E.1_K5.1_C5.1_H5.1_A5.1_[T6C]_F5.1_[T8A]_[T9A]_[A10C]_T5.1 (ssRNA) RNA: UUUGACAACUGAUCGUUCUUUCUUGUAUCAAACUUCUUUCUCGAUCAGUUGUCUUU,156
4,Ic_S4_P5E.1_K5.1_C5.1_H5.1_A5.1_[T5A]_[T6C]_F5.1_[T9G]_[A10C]_T5.1 (ssRNA) RNA: UUUGACAACUGAUCGUUCUUUCUUGUAACAUGCUUCUUUCUCGAUCAGUUGUCUUU,25.7
5,Ic_S4_P5E.1_K5.1_C5.1_H5.1_A5.1_[T5C]_[A7C]_F5.1_[T8A]_[T9G]_[A10C]_T5.1 (ssRNA) RNA: UUUGACAACUGAUCGUUCUUUCUUGUACUCAGCUUCUUUCUCGAUCAGUUGUCUUU,730
6,Ic_S4_P5E.1_K5.1_C5.1_H5.1_A5.1_[T5A]_[T6A]_[A7C]_F5.1_[T8C]_[A10C]_T5.1 (ssRNA) RNA: UUUGACAACUGAUCGUUCUUUCUUGUAAACCUCUUCUUUCUCGAUCAGUUGUCUUU,233
7,Ic_S4_P5E.1_K5.1_C5.1_H5.1_A5.1_[T5G]_[T6C]_[A7C]_F5.1_[T8C]_T5.1 (ssRNA) RNA: UUUGACAACUGAUCGUUCUUUCUUGUAGCCCUAUUCUUUCUCGAUCAGUUGUCUUU,19.6
8,Ic_S4_P5E.1_K5.1_C5.1_H5.1_A5.1_[T6A]_[A7T]_F5.1_[T8C]_[T9G]_[A10C]_T5.1 (ssRNA) RNA: UUUGACAACUGAUCGUUCUUUCUUGUAUAUCGCUUCUUUCUCGAUCAGUUGUCUUU,21.8
9,Ic_S4_P5E.1_K5.1_C5.1_H5.1_A5.1_[A7G]_F5.1_[T8G]_T5.1 (ssRNA) RNA: UUUGACAACUGAUCGUUCUUUCUUGUAUUGGUAUUCUUUCUCGAUCAGUUGUCUUU,58.8
10,Ic_S4_P5E.1_K5.1_C5.1_H5.1_A5.1_[T5A]_[A7G]_F5.1_[T8C]_[T9A]_[A10T]_T5.1 (ssRNA) RNA: UUUGACAACUGAUCGUUCUUUCUUGUAAUGCAUUUCUUUCUCGAUCAGUUGUCUUU,844
11,Ic_S4_P5E.1_K5.1_C5.1_H5.1_A5.1_[T5G]_[T6C]_[A7G]_F5.1_[T8C]_[T9G]_[A10T]_T5.1 (ssRNA) RNA: UUUGACAACUGAUCGUUCUUUCUUGUAGCGCGUUUCUUUCUCGAUCAGUUGUCUUU,1620
12,Ic_S4_P5E.1_K5.1_C5.1_H5.1_A5.1_[T5C]_F5.1_[T8C]_[T9A]_[A10C]_T5.1 (ssRNA) RNA: UUUGACAACUGAUCGUUCUUUCUUGUACUACACUUCUUUCUCGAUCAGUUGUCUUU,540
13,Ic_S4_P5E.1_K5.1_C5.1_H5.1_A5.1_[T5C]_[T6G]_[A7T]_F5.1_[T8G]_[T9C]_[A10C]_T5.1 (ssRNA) RNA: UUUGACAACUGAUCGUUCUUUCUUGUACGUGCCUUCUUUCUCGAUCAGUUGUCUUU,125
14,Ic_S4_P5E.1_K5.1_C5.1_H5.1_A5.1_[T5C]_[T6G]_[A7G]_F5.1_[T9A]_T5.1 (ssRNA) RNA: UUUGACAACUGAUCGUUCUUUCUUGUACGGUAAUUCUUUCUCGAUCAGUUGUCUUU,38.4
15,Ic_S4_P5E.1_K5.1_C5.1_H5.1_A5.1_[T5G]_[A7C]_F5.1_[T8A]_[T9C]_[A10T]_T5.1 (ssRNA) RNA: UUUGACAACUGAUCGUUCUUUCUUGUAGUCACUUUCUUUCUCGAUCAGUUGUCUUU,1040
16,Ic_S4_P5E.1_K5.1_C5.1_H5.1_A5.1_[T5A]_[T6A]_[A7T]_F5.1_[T8C]_[T9C]_[A10G]_T5.1 (ssRNA) RNA: UUUGACAACUGAUCGUUCUUUCUUGUAAAUCCGUUCUUUCUCGAUCAGUUGUCUUU,254
17,Ic_S4_P5E.1_K5.1_C5.1_H5.1_A5.1_[T6C]_[A7G]_F5.1_[T8G]_T5.1 (ssRNA) RNA: UUUGACAACUGAUCGUUCUUUCUUGUAUCGGUAUUCUUUCUCGAUCAGUUGUCUUU,45.9
18,Ic_S4_P5E.1_K5.1_C5.1_H5.1_A5.1_[T5C]_[T6G]_[A7T]_F5.1_[T8C]_[T9G]_[A10T]_T5.1 (ssRNA) RNA: UUUGACAACUGAUCGUUCUUUCUUGUACGUCGUUUCUUUCUCGAUCAGUUGUCUUU,167
19,Ic_S4_P5E.1_K5.1_C5.1_H5.1_A5.1_[T5G]_[A7T]_F5.1_[T9C]_[A10C]_T5.1 (ssRNA) RNA: UUUGACAACUGAUCGUUCUUUCUUGUAGUUUCCUUCUUUCUCGAUCAGUUGUCUUU,125
20,Ic_S4_P5E.1_K5.1_C5.1_H5.1_A5.1_[A7T]_F5.1_[T8C]_[T9C]_T5.1 (ssRNA) RNA: UUUGACAACUGAUCGUUCUUUCUUGUAUUUCCAUUCUUUCUCGAUCAGUUGUCUUU,120
21,Ic_S4_P5E.1_K5.1_C5.1_H5.1_A5.1_[A7C]_F5.1_[T8G]_[A10G]_T5.1 (ssRNA) RNA: UUUGACAACUGAUCGUUCUUUCUUGUAUUCGUGUUCUUUCUCGAUCAGUUGUCUUU,66.3
22,Ic_S4_P5E.1_K5.1_C5.1_H5.1_A5.1_[T5A]_F5.1_[A10G]_T5.1 (ssRNA) RNA: UUUGACAACUGAUCGUUCUUUCUUGUAAUAUUGUUCUUUCUCGAUCAGUUGUCUUU,24.3
23,Ic_S4_P5E.1_K5.1_C5.1_H5.1_A5.1_[T6A]_[A7C]_F5.1_[T8C]_[T9G]_[A10T]_T5.1 (ssRNA) RNA: UUUGACAACUGAUCGUUCUUUCUUGUAUACCGUUUCUUUCUCGAUCAGUUGUCUUU,37.8
24,Ic_S4_P5E.1_K5.1_C5.1_H5.1_A5.1_[T5C]_[T6A]_[A7C]_F5.1_[T9G]_[A10G]_T5.1 (ssRNA) RNA: UUUGACAACUGAUCGUUCUUUCUUGUACACUGGUUCUUUCUCGAUCAGUUGUCUUU,14.9
